In the supplement of paper PMC10567573:

B1: VDR (parent)
chain: VTLELSQLSMLPHLADLVSYSIQK
B2: FBXO39 (parent)
chain: RVFKARIYTNRYETNEEDKTLQEI

Variants of: B1
Experiment: protein stability index of a GFP-peptide fusion (GPS, HEK-293T) (PSI 1-6); higher = more stable
Conditions: c terminus: a fixed tail appended
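Note: lentivirally expressed fusions sorted by FACS into six bins by GFP to DsRed ratio, PSI derived from sequencing read proportions per bin multiplied by bin number.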

Variant	protein stability index
VTLELSQLSMLPHLADLVSYSIQT [K24T]	3.5
VTLELSQLSMLPHLADLVSYSIQP [K24P]	2.95
VTLELSQLSMLPHLADLVSYSIQV [K24V]	5.45
VTLELSQLSMLPHLADLVSYSIQY [K24Y]	3.25
VTLELSQLSMLPHLADLVSYSIQM [K24M]	3.28
VTLELSQLSMLPHLADLVSYSIQW [K24W]	3.71
VTLELSQLSMLPHLADLVSYSIQQ [K24Q]	3.06
VTLELSQLSMLPHLADLVSYSIQR [K24R]	3.01
VTLELSQLSMLPHLADLVSYSIQL [K24L]	1.86
VTLELSQLSMLPHLADLVSYSIQS [K24S]	2.66
VTLELSQLSMLPHLADLVSYSIQN [K24N]	3.71

Variants of: B2
Experiment: as above
Conditions: c terminus: a fixed tail appended

Variant	protein stability index
RVFKRRIYTNRYETNEEDKTLQEI [A5R]	3.49
RVFKWRIYTNRYETNEEDKTLQEI [A5W]	2.34
RVFKGRIYTNRYETNEEDKTLQEI [A5G]	3.1
RVFKYRIYTNRYETNEEDKTLQEI [A5Y]	2.19
RVFKPRIYTNRYETNEEDKTLQEI [A5P]	3.05
RVFKVRIYTNRYETNEEDKTLQEI [A5V]	1.67
RVFKNRIYTNRYETNEEDKTLQEI [A5N]	3.95
RVFKCRIYTNRYETNEEDKTLQEI [A5C]	3.51
RVFKDRIYTNRYETNEEDKTLQEI [A5D]	4.39
RVFKMRIYTNRYETNEEDKTLQEI [A5M]	3.02
RVFKKRIYTNRYETNEEDKTLQEI [A5K]	2.69
RVFKFRIYTNRYETNEEDKTLQEI [A5F]	1.63
RVFKTRIYTNRYETNEEDKTLQEI [A5T]	2.1
RVFKIRIYTNRYETNEEDKTLQEI [A5I]	2.2
RVFKLRIYTNRYETNEEDKTLQEI [A5L]	3.33
RVFKSRIYTNRYETNEEDKTLQEI [A5S]	2.71
RVFKQRIYTNRYETNEEDKTLQEI [A5Q]	2.7
RVFKERIYTNRYETNEEDKTLQEI [A5E]	4.48
RVFKHRIYTNRYETNEEDKTLQEI [A5H]	3.04
RVFKARILTNRYETNEEDKTLQEI [Y8L]	3.21
RVFKARIDTNRYETNEEDKTLQEI [Y8D]	4.51

Variant	protein stability index
RVFKARIETNRYETNEEDKTLQEI [Y8E]	3.93
RVFKARITTNRYETNEEDKTLQEI [Y8T]	2.93
RVFKARIRTNRYETNEEDKTLQEI [Y8R]	3.15
RVFKARIKTNRYETNEEDKTLQEI [Y8K]	3.22
RVFKARINTNRYETNEEDKTLQEI [Y8N]	3.97
RVFKARIATNRYETNEEDKTLQEI [Y8A]	3.84
RVFKARIWTNRYETNEEDKTLQEI [Y8W]	2.16
RVFKARIQTNRYETNEEDKTLQEI [Y8Q]	2.77
RVFKARIMTNRYETNEEDKTLQEI [Y8M]	2.77
RVFKARIVTNRYETNEEDKTLQEI [Y8V]	3.08
RVFKARIGTNRYETNEEDKTLQEI [Y8G]	3.46
RVFKARIHTNRYETNEEDKTLQEI [Y8H]	3.27
RVFKARIPTNRYETNEEDKTLQEI [Y8P]	2.45
RVFKARICTNRYETNEEDKTLQEI [Y8C]	3.78
RVFKARIITNRYETNEEDKTLQEI [Y8I]	2.73
RVFKARIFTNRYETNEEDKTLQEI [Y8F]	2.91
RVFKARISTNRYETNEEDKTLQEI [Y8S]	3.13
RVFKAREYTNRYETNEEDKTLQEI [I7E]	3.24
RVFKARGYTNRYETNEEDKTLQEI [I7G]	3.64
RVFKARCYTNRYETNEEDKTLQEI [I7C]	2.74
RVFKARNYTNRYETNEEDKTLQEI [I7N]	2.7

Variant	protein stability index
RVFKARMYTNRYETNEEDKTLQEI [I7M]	2.67
RVFKARRYTNRYETNEEDKTLQEI [I7R]	2.43
RVFKARAYTNRYETNEEDKTLQEI [I7A]	3.14
RVFKARPYTNRYETNEEDKTLQEI [I7P]	4.12
RVFKARFYTNRYETNEEDKTLQEI [I7F]	2.67
RVFKARTYTNRYETNEEDKTLQEI [I7T]	3
RVFKARSYTNRYETNEEDKTLQEI [I7S]	3.39
RVFKARDYTNRYETNEEDKTLQEI [I7D]	4.26
RVFKARQYTNRYETNEEDKTLQEI [I7Q]	2.74
RVFKARWYTNRYETNEEDKTLQEI [I7W]	3.15
RVFKARYYTNRYETNEEDKTLQEI [I7Y]	2.39
RVFKARKYTNRYETNEEDKTLQEI [I7K]	2.24
RVFKARHYTNRYETNEEDKTLQEI [I7H]	2.54
RVFKARLYTNRYETNEEDKTLQEI [I7L]	2.9
RVFYARIYTNRYETNEEDKTLQEI [K4Y]	2.11
RVFSARIYTNRYETNEEDKTLQEI [K4S]	3.6
RVFIARIYTNRYETNEEDKTLQEI [K4I]	1.88
RVFFARIYTNRYETNEEDKTLQEI [K4F]	2.03
RVFGARIYTNRYETNEEDKTLQEI [K4G]	3.59
RVFTARIYTNRYETNEEDKTLQEI [K4T]	4.72
RVFLARIYTNRYETNEEDKTLQEI [K4L]	1.99

Variant	protein stability index
RVFPARIYTNRYETNEEDKTLQEI [K4P]	4.27
RVFVARIYTNRYETNEEDKTLQEI [K4V]	2.16
RVFNARIYTNRYETNEEDKTLQEI [K4N]	3.6
RVFMARIYTNRYETNEEDKTLQEI [K4M]	2.65
RVFCARIYTNRYETNEEDKTLQEI [K4C]	2.83
RVFRARIYTNRYETNEEDKTLQEI [K4R]	3.12
RVFDARIYTNRYETNEEDKTLQEI [K4D]	4.08
RVFEARIYTNRYETNEEDKTLQEI [K4E]	3.81
RVFHARIYTNRYETNEEDKTLQEI [K4H]	3.52
RVFQARIYTNRYETNEEDKTLQEI [K4Q]	4.48
RVFAARIYTNRYETNEEDKTLQEI [K4A]	2.55
RVFKARIYTRRYETNEEDKTLQEI [N10R]	2.6
RVFKARIYTMRYETNEEDKTLQEI [N10M]	3.04
RVFKARIYTIRYETNEEDKTLQEI [N10I]	2.73
RVFKARIYTLRYETNEEDKTLQEI [N10L]	2.11
RVFKARIYTCRYETNEEDKTLQEI [N10C]	2.29
RVFKARIYTERYETNEEDKTLQEI [N10E]	3.31
RVFKARIYTPRYETNEEDKTLQEI [N10P]	2.21
RVFKARIYTHRYETNEEDKTLQEI [N10H]	2.82
RVFKARIYTGRYETNEEDKTLQEI [N10G]	2.75
